Assay results taken from patent publication US20220289828A1.

What was measured:
[1] = target: B1 clade EV-D68 isolate (Enterovirus D68); assay: cell-based or functional assay
[2] = target: Enterovirus D68 US/MO/14-18947 virus particle (B1 clade) (Enterovirus D68); assay: cryo-EM of Fab with B1 clade virus
[3] = target: Enterovirus D68 US/MO/14-18947 virus particle (B1 clade) (Enterovirus D68); assay: cryo-EM structure

B1: mAb EV68-159 (antibody, V domains shown)
VH: EVQLVESGGGLVKPGGSLRLSCAASGFTFSTYIMTWVRQAPGRGLEWVSSISTSSVYTFYADSLKGRFTISRDNAKNSVYLQMNSLRADDTAVYYCAREEGFRAYNLYWGQGTLVTVSS
VL: QSVLTQPPSASGTPGQRVTISCSGSSSNIEYNYVYWYQKFPGTAPKLLIYKNNQRPSGVPDRFSGSKSGTSASLAISGLRSEDEGDYYCAAWDDILSGVVFGGGTKLTVL
[1]
  IC50 in a CCID50 neutralization assay: 0.32 ng/mL

B2: Fab EV68-159 (Fab, V domains shown)
VH: EVQLVESGGGLVKPGGSLRLSCAASGFTFSTYIMTWVRQAPGRGLEWVSSISTSSVYTFYADSLKGRFTISRDNAKNSVYLQMNSLRADDTAVYYCAREEGFRAYNLYWGQGTLVTVSS
VL: QSVLTQPPSASGTPGQRVTISCSGSSSNIEYNYVYWYQKFPGTAPKLLIYKNNQRPSGVPDRFSGSKSGTSASLAISGLRSEDEGDYYCAAWDDILSGVVFGGGTKLTVL
[2]
  copies of Fab bound to the virus particle: 60 copies
[3]
  share of the masked surface area from the heavy chain: 77%
  viral surface area masked by each Fab: 990 Å^2

B3: Fab EV68-228 (Fab, V domains shown)
VH: QVQLQESGPGLVKPSETLSLTCTVSGYLISNGYYWGWIRQSPGKGLEWIGSIYYTRDTYYNWSLKSRITISVDTSKKQFSLKLYSVTAADTAVYYCVRHEGSCNDGSCYGSFVDNWGQGTLVTVSS
VL: DIQMTQSPSSVSASVGDRVTLTCRASQDISSWLAWYQQKPGKAPKLLIYAASSLQSGVPSRFSGSGSGTHFTLTISSLQPEDFATYFCQQADSFITFGGGTKVEIK
[2]
  copies of Fab bound to the virus particle: 60 copies
[3]
  share of the masked surface area from the heavy chain: 84%
  viral surface area masked by each Fab: 1170 Å^2
